These results are taken from paper PMC2132615 (The Journal of Cell Biology, 1997).

This series deals with the molecule itself.

B1: CBF3 p110 (p110^NDC10) (natural protein)
chain: MRSSILFLLKLMKIMDVQQQQEAMSSEDRFQELVDSLKPRTAHQYKTYYTKYIQWCQLNQIIPTPEDNSVNSVPYKDLPISAELIHWFLLDTLITDDKPGEKREETEDLDEEEENSFKIATLKKIIGSLNFLSKLCKVHENPNANIDTKYLESVTKLHTHWIDSQKAITTNETNNTNTQVLCPPLLKVSLNLWNPETNHLSEKFFKTCSEKLRFLVDFQLRSYLNLSFEERSKIRFGSLKLGKRDRDAIIYHKVTHSAEKKDTPGHHQLLALLPQDCPFICPQTTLAAYLYLRFYGIPSVSKGDGFPNLNADENGSLLQDIPILRGKSLTTYPREETFSNYYTTVFRYCHLPYKRREYFNKCNLVYPTWDEDTFRTFFNEENHGNWLEQPEAFAFPDKIPFDFKKIMNFKSPYTSYSTNAKKDPFPPPKDLLVQIFPEIDEYKRHDYEGLSQNSRDFLDLMEVLRERFLSNLPWIYKFFPNHDIFQDPIFGNSDFQSYFNDKTIHSKGSPILSFDILPGFNKIYKNKTNFYSLLIERPSQLTFASSHNPDTHPTQKQESEGPLQMSQLDTTQLNELLKQQSFEYVQFQTLSNFQILLSVFNKIFEKLEMKKSSRGYILHQLNLFKITLDERIKKSKIDDADKFIRDNQPIKKEENIVNEDGPNTSRRTKRPKQIRLLSIADSSDESSTEDSNVFKKDGESIEDGAYGENEDENDSEMQEQLKSMINELINSKISTFLRDQMDQFELKINALLDKILEEKVTRIIEQKLGSHTGKFSTLKRPQLYMTEEHNVGFDMEVPKKLRTSGKYAETVKDNDDHQAMSTTASPSPEQDQEAKSYTDEQEFMLDKSIDSIEGIILEWFTPNAKYANQCVHSMNKSGNKSWRANCEALYKERKSIVEFYIYLVNHESLDRYKAVDICEKLRDQNEGSFSRLAKFLRKWRHDHQNSFDGLLVYLSN
With B1, the stoichiometry N (in general, the number of molecules, sites or subunits per partner or assembly) worked out at 2.
